Data: patent US20040253587A1
Several values for one entry are separate records, joined by “and”; a condition that tells them apart may be missing. Equal entries are not always repeated.

target: IL-15 receptor complex on CTLL-2 cells; assay: cell-based or functional assay

Row | CTLL Inhibition Assay units/ml (Antagonist Activity) | concentration of antagonist required to neutralize 40 pg/ml IL-15 in CTLL inhibition assay [ng/mL] | Substance
1 | 2e+06 units/ml and 5e+06 units/ml | – | IL-15-D56C (from UniProt P40933 49-162) (ligand)
2 | 220000 units/ml | – | IL-15-D56S (from UniProt P40933 49-162) (ligand)
3 | 720000 units/ml | – | IL-15-D56S-Q156S (from UniProt P40933 49-162) (ligand)
4 | 1.5e+06 units/ml | – | IL-15-Q156S (from UniProt P40933 49-162) (ligand)
5 | 7.96e+06 units/ml | 7.7 | PEG-IL-15-D56C (from UniProt P40933 49-162) (ligand)

Continued, substance first:

Row | Substance | CTLL Inhibition Assay units/ml (Antagonist Activity) | concentration of antagonist required to neutralize 40 pg/ml IL-15 in CTLL inhibition assay [ng/mL]
6 | IL-15 (from UniProt P40933 49-162) (ligand) | 279 units/ml | –
7 | IL-15-D56C-Q156C (from UniProt P40933 49-162) (ligand) | 200000 units/ml | –
8 | IL-15-D56C-Q156S (from UniProt P40933 49-162) (ligand) | 700000 units/ml | –
9 | IL-15-Q156C (from UniProt P40933 49-162) (ligand) | 3e+06 units/ml | –
